Data published in article PMC6727212 (ACS Chemical Neuroscience, 2019).
Changes are numbered by the printed parent chain. Names and notes keep the numbering of the source. Values joined by “and” are separate entries in the source; they are usually repeats but may differ in a detail not shown here. Identical values can stand only once.

B1: human stefin B P74S (natural protein, UniProt P04080 1-98, looked up)
chain: MMSGAPSATQPATAETQHIADQVRSQLEEKENKKFPVFKAVSFKSQVVAGTNYFIKVHVGDEDFVHLRVFQSLSHENKPLTLSNYQTNKAKHDELTYF
B2: recombinant human stefin B wild-type (C3S) (natural protein, UniProt P04080 1-98, looked up)
chain: B1 chain with S74P
B3: human stefin B P74S P79S (natural protein, UniProt P04080 1-98, looked up)
chain: B1 chain with P79S
B4: human stefin B P11S P74S (natural protein, UniProt P04080 1-98, looked up)
chain: B1 chain with P11S
B5: human stefin B P6L (natural protein, UniProt P04080 1-98, looked up)
chain: B1 chain with P6L, S74P
B6: human stefin B P6L P74S (natural protein, UniProt P04080 1-98, looked up)
chain: B1 chain with P6L
B7: human stefin B P11S (natural protein, UniProt P04080 1-98, looked up)
chain: B1 chain with P11S, S74P
B8: human stefin B P36D (natural protein, UniProt P04080 1-98, looked up)
chain: B1 chain with P36D, S74P
B9: human stefin B P79S (natural protein, UniProt P04080 1-98, looked up)
chain: B1 chain with S74P, P79S

Target: the molecule itself
Assay: SEC; Superdex 75 (10 x 300 mm) on FPLC, room temperature, 0.5 mL/min, 500 uL of about 1 mg/mL protein; 10 mM phosphate, 0.15 M NaCl, pH 7.5 (legend and results; the methods say pH 7.0); equilibrium oligomeric state, stB wt as standard

Protein | binding result
B1 | binds

Target: the molecule itself
Assay: as above
Remark: another data set of the same source

Protein | stoichiometry N | binding result
B2 | 2 | –
B3 | 2 | –
B4 | 2 | –
B5 | – | binds
B6 | 2 | –
B7 | – | binds
B8 | – | binds
B9 | 2 and 4 | –
